Data as given in patent US20230189818A1, “RNA-BASED CONTROL OF BOTRYTIS” (priority 2021, published 2023).

Columns and labels:
[1] = tested on: Botrytis cinerea B05.10 isolate; experiment: Greenhouse whole plant assay (tomato 'Lanai', disease severity); format: in vivo; details: final rating day (rating #3), three runs, four-week-old 'Lanai' tomato plant
[2] = tested on: B. cinerea; experiment: Open-air field trial on snap bean (Example 4.3, AUDPC of % disease severity); format: in vivo, Botrytis cinerea; details: Switch 525 g ai/ha, GS349 20 and 40, GS2280 10 and 40, GS2303 10, 20 and 40, GS2297 20 g ai/ha, FIG. 9
Method: RNAi compositions, each containing a dsRNA comprising a trigger sequence (GS349, GS2280, GS2303, or GS2297) described herein were evaluated for ability to control botrytis on snap bean in open-air filed trials. All test samples were formulated with RO water, propylene glycol, a linear alcohol ethoxylate, a lignosulfanate, sodium citrate dihydate, a polyacrylic acid polymer, two biocide compositions, anhydrous citric acid, and an antifoam, all of which are readily commercially available. Formulation samples were tank mixed with a standard adjuvant, the non-ionic surfactant, Activator 90 0.125%v/v. Compositions were tested at concentrations of 10, g ai/ha, 20 g ai/ha, and 40 g ai/ha. Positive controls were a chemical standard, Switch 525 g ai/ha and a biological standard, Double Nickel LC 9.4 I/ha, both of which were also tank mixed with Activator 90 0.125% v/v. As above, an untreated check was used as a negative control.
Compositions were applied to snap bean plants using a small plot sprayer delivering 50 gallons of water per acre. A total of three applications were used for each sample and positive control. Disease state was evaluated beginning 8 days after the first application and ending 37 days after the third and final application. Percent Disease Severity was assessed and AUDPC was calculated in the same manner as noted in Example 4.1.

[3] = tested on: Botrytis cinerea conidia; experiment: In vitro liquid-based assay (fungal biomass, 96-well plates, Cytation 5); format: cell-based; details: co-incubated with conidia for three days, vs untreated control
Outline: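 Conidia (5000/mL stock) were co-incubated with dsRNA or control treatments in pH 6.0 minimal medium. Incubation ran 72 h at 23 °C, shaking at 120 rpm under continuous light. Fungal biomass was measured by brightfield imaging (8 slices per well, 2.5× lens) and expressed as average reduction versus control.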

B1: GS2297: dsRNA trigger targeting B. cinerea Bcrpb5 (XM_024693733.1); trigger SEQ ID NO 23, RNA 35, reverse complement 47 (nucleic acid, listed as Botrytis cinerea)
sense: UGCACCAUCAGGUCCCGCUCAAAAGAUUAUUCCCGCUGUCGCAUCCGAGACAAGAAUCGAGACCUUCGUCGAGCAAGAUUUACUUGUCAAUAUUACACAUCAUGAAUUGGUUCCCAAGCAUGUUUUGUUAAGUAGAGAAGAGAGGGCCAAGUUGUUGUCAAGAUAUAGAUUGAAGGAUACUCAACUCCCACGUAUUCAGGCUGCGGAUCCAGUUGCAAAAUAUUUGGGAUUGAGAAGAGGGCAGGUCGUUAAGAUUAUCAGAAAGUCGGAAACUGCUGGUCGUUAUGCCAGUUACAGAUUGUGCGUAUAAUGGAGCUGGAGGGUAGAUGAUUUGGUGUUAAUAACUAGGGAGUUUCUUGGGAAAAAUUUGCAUAUUUGGGGAAGGCGUAAUAGGCUGGAAGAAAGACUGAGGAUGAGAUUGUCUAUUUUGGCUUUCCAGGAAGCAAUACUUUGAGACAUGAAAUUUGAUAUUAAAUUUCUUGUUCUGUAUAUUUCUGAUAGUUUCAGAGCUUUUCAAUAAGAUCUAUUCUACAGUUUUAAGAAUCCAGACUCACCCUUUGAGAAGCUCAUACAAAGUUCCUUCCUA
antisense: UAGGAAGGAACUUUGUAUGAGCUUCUCAAAGGGUGAGUCUGGAUUCUUAAAACUGUAGAAUAGAUCUUAUUGAAAAGCUCUGAAACUAUCAGAAAUAUACAGAACAAGAAAUUUAAUAUCAAAUUUCAUGUCUCAAAGUAUUGCUUCCUGGAAAGCCAAAAUAGACAAUCUCAUCCUCAGUCUUUCUUCCAGCCUAUUACGCCUUCCCCAAAUAUGCAAAUUUUUCCCAAGAAACUCCCUAGUUAUUAACACCAAAUCAUCUACCCUCCAGCUCCAUUAUACGCACAAUCUGUAACUGGCAUAACGACCAGCAGUUUCCGACUUUCUGAUAAUCUUAACGACCUGCCCUCUUCUCAAUCCCAAAUAUUUUGCAACUGGAUCCGCAGCCUGAAUACGUGGGAGUUGAGUAUCCUUCAAUCUAUAUCUUGACAACAACUUGGCCCUCUCUUCUCUACUUAACAAAACAUGCUUGGGAACCAAUUCAUGAUGUGUAAUAUUGACAAGUAAAUCUUGCUCGACGAAGGUCUCGAUUCUUGUCUCGGAUGCGACAGCGGGAAUAAUCUUUUGAGCGGGACCUGAUGGUGCA
- % control ([1]; 8 g ai/ha): 6%
- % control ([1]; 25 g ai/ha): 29%
- Disease state compared to treatment with the chemical standard (AUDPC) [2]: no significant difference
- Average % Reduction in Biomass ([3]; 25 ppm dsRNA): 11%
- Average % Reduction in Biomass ([3]; 150 ppm dsRNA): 24%
